The results in this text go back to the supplement of paper PMC5998384.

Data set [1] relates to HeLa Kyoto. As to the kind of experiment: solubility change mitosis vs G1/S (difference of NP-40 vs SDS log2 ratios) (log2 ratio difference); higher = more soluble in mitosis.
The test system of data set [2] is HeLa Kyoto. Briefly: melting temperature (median over replicates), in situ; higher = more thermally stable.
The subject of data set [3] is HeLa Kyoto. As to the kind of experiment: solubility in G1/S (NP-40 vs SDS abundance) (log2 ratio); higher = more soluble. The following applies: cell cycle stage: G1/S.
The subject of data set [4] is HeLa Kyoto. Briefly: thermal stability score vs G1/S (z-score of summed log2 fold changes over temperatures); higher = more thermally stable than in G1/S.
Where [5] appears, read: cell cycle stage: early G1 (4.5 h after nocodazole release).
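Wherever melting temperature (median over replicates), in situ is given: HeLa Kyoto cells synchronized by double thymidine or nocodazole block, proteins quantified by TMT10plex mass spectrometry, three independent biological replicates.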
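Wherever solubility change mitosis vs G1/S (difference of NP-40 vs SDS log2 ratios) is given: synchronized HeLa Kyoto cells (double thymidine block for G1/S, nocodazole release for mitosis), protein amounts in NP-40 versus SDS lysates quantified by mass spectrometry, three biological replicates.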
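Wherever solubility in G1/S (NP-40 vs SDS abundance) is given: HeLa Kyoto cells arrested at G1/S by double thymidine block, proteins quantified by TMT10plex mass spectrometry in mild NP-40 versus SDS extracts, three biological replicates.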
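Wherever thermal stability score vs G1/S (z-score of summed log2 fold changes over temperatures) is given: synchronized HeLa Kyoto cells, proteins quantified by TMT10plex mass spectrometry, three biological replicates, mitosis taken 0.5 h after nocodazole release, G1/S directly after double thymidine block.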

Regarding “MLKALFLTMLTLALVKSQDTEETITYTQCTDGYEWDPVRQQCKDIDECDIVPDACKGGMKCVNHYGGYLCLPKTAQIIVNNEQPQQETQPAEGTSGATTGVVAASSMATSGVLPGGGFVASAAAVAGPEMQTGRNNFVIRRNPADPQRIPSNPSHRIQCAAGYEQSEHNVCQDIDECTAGTHNCRADQVCINLRGSFACQCPPGYQKRGEQCVDIDECTIPPYCHQRCVNTPGSFYCQCSPGFQLAANNYTCVDINECDASNQCAQQCYNILGSFICQCNQGYELSSDRLNCEDIDECRTSSYLCQYQCVNEPGKFSCMCPQGYQVVRSRTCQDINECETTNECREDEMCWNYHGGFRCYPRNPCQDPYILTPENRCVCPVSNAMCRELPQSIVYKYMSIRSDRSVPSDIFQIQATTIYANTINTFRIKSGNENGEFYLRQTSPVSAMLVLVKSLSGPREHIVDLEMLTVSSIGTFRTSSVLRLTIIVGPFSF [EFEMP1]”, the “solubility change mitosis (log2)” value with HeLa Kyoto [1] was -0.165. For the same sequence, the melting temperature with HeLa Kyoto [2] (cell cycle stage: G1/S) was found to be 54.2 °C; in the data set with HeLa Kyoto [2] (cell cycle stage: mitosis), 54.1 °C. In the data set with HeLa Kyoto [3], the “solubility in G1/S (log2)” value is -0.278. The thermal stability score came to 4.52 with HeLa Kyoto [4] (setting [5]) and 3.96 with HeLa Kyoto [4] (cell cycle stage: mitosis).

In the case of “MLKFRTVHGGLRLLGIRRTSTAPAASPNVRRLEYKPIKKVMVANRGEIAIRVFRACTELGIRTVAIYSEQDTGQMHRQKADEAYLIGRGLAPVQAYLHIPDIIKVAKENNVDAVHPGYGFLSERADFAQACQDAGVRFIGPSPEVVRKMGDKVEARAIAIAAGVPVVPGTDAPITSLHEAHEFSNTYGFPIIFKAAYGGGGRGMRVVHSYEELEENYTRAYSEALAAFGNGALFVEKFIEKPRHIEVQILGDQYGNILHLYERDCSIQRRHQKVVEIAPAAHLDPQLRTRLTSDSVKLAKQVGYENAGTVEFLVDRHGKHYFIEVNSRLQVEHTVTEEITDVDLVHAQIHVAEGRSLPDLGLRQENIRINGCAIQCRVTTEDPARSFQPDTGRIEVFRSGEGMGIRLDNASAFQGAVISPHYDSLLVKVIAHGKDHPTAATKMSRALAEFRVRGVKTNIAFLQNVLNNQQFLAGTVDTQFIDENPELFQLRPAQNRAQKLLHYLGHVMVNGPTTPIPVKASPSPTDPVVPAVPIGPPPAGFRDILLREGPEGFARAVRNHPGLLLMDTTFRDAHQSLLATRVRTHDLKKIAPYVAHNFSKLFSMENWGGATFDVAMRFLYECPWRRLQELRELIPNIPFQMLLRGANAVGYTNYPDNVVFKFCEVAKENGMDVFRVFDSLNYLPNMLLGMEAAGSAGGVVEAAISYTGDVADPSRTKYSLQYYMGLAEELVRAGTHILCIKDMAGLLKPTACTMLVSSLRDRFPDLPLHIHTHDTSGAGVAAMLACAQAGADVVDVAADSMSGMTSQPSMGALVACTRGTPLDTEVPMERVFDYSEYWEGARGLYAAFDCTATMKSGNSDVYENEIPGGQYTNLHFQAHSMGLGSKFKEVKKAYVEANQMLGDLIKVTPSSKIVGDLAQFMVQNGLSRAEAEAQAEELSFPRSVVEFLQGYIGVPHGGFPEPFRSKVLKDLPRVEGRPGASLPPLDLQALEKELVDRHGEEVTPEDVLSAAMYPDVFAHFKDFTATFGPLDSLNTRLFLQGPKIAEEFEVELERGKTLHIKALAVSDLNRAGQRQVFFELNGQLRSILVKDTQAMKEMHFHPKALKDVKGQIGAPMPGKVIDIKVVAGAKVAKGQPLCVLSAMKMETVVTSPMEGTVRKVHVTKDMTLEGDDLILEIE [PC]”, in the data set with HeLa Kyoto [1], the “solubility change mitosis (log2)” value is -0.101. Further, the melting temperature in the data set on HeLa Kyoto [2] (cell cycle stage: G1/S) came out at 51.4 °C; in the data set on HeLa Kyoto [2] (cell cycle stage: mitosis), 51.5 °C. Also, the “solubility in G1/S (log2)” value in the data set on HeLa Kyoto [3] is -0.0111. Further, the thermal stability score in the data set on HeLa Kyoto [4] (setting [5]) is -1.77; with HeLa Kyoto [4] (cell cycle stage: mitosis) it was -2.7.

As for “MLKQILSEMYIDPDLLAELSEEQKQILFFKMREEQIRRWKEREAAMERKESLPVKPRPKKENGKSVHWKLGADKEVWVWVMGEHHLDKPYDVLCNEIIAERARLKAEQEAEEPRKTHSEEFTNSLKTKSQYHDLQAPDNQQTKDIWKKVAEKEELEQGSRPAPTLEEEKIRSLSSSSRNIQQMLADSINRMKAYAFHQKKESMKKKQDEEINQIEEERTKQICKSWKEDSEWQASLRKSKAADEKRRSLAKQAREDYKRLSLGAQKGRGGERLQSPLRVPQKPERPPLPPKPQFLNSGAYPQKPLRNQGVVRTLSSSAQEDIIRWFKEEQLPLRAGYQKTSDTIAPWFHGILTLKKANELLLSTGMPGSFLIRVSERIKGYALSYLSEDGCKHFLIDASADAYSFLGVDQLQHATLADLVEYHKEEPITSLGKELLLYPCGQQDQLPDYLELFE [SH2D4A]”, the “solubility change mitosis (log2)” value in the data set with HeLa Kyoto [1] was -0.0397. Moreover, the melting temperature amounted to 49 °C in the data set with HeLa Kyoto [2] (cell cycle stage: G1/S) and 49.5 °C in the data set on HeLa Kyoto [2] (cell cycle stage: mitosis). Also, the “solubility in G1/S (log2)” value in the data set with HeLa Kyoto [3] is 0.308. In addition, the figures for the thermal stability score in the data set on HeLa Kyoto [4] (setting [5]) and in the data set on HeLa Kyoto [4] (cell cycle stage: mitosis) were -0.202 and 0.42, respectively.

With “MLKSKTFLKKTRAGGVMKIVREHYLRDDIGCGAPGCAACGGAHEGPALEPQPQDPASSVCPQPHYLLPDTNVLLHQIDVLEDPAIRNVIVLQTVLQEVRNRSAPVYKRIRDVTNNQEKHFYTFTNEHHRETYVEQEQGENANDRNDRAIRVAAKWYNEHLKKMSADNQLQVIFITNDRRNKEKAIEEGIPAFTCEEYVKSLTANPELIDRLACLSEEGNEIESGKIIFSEHLPLSKLQQGIKSGTYLQGTFRASRENYLEATVWIHGDNEENKEIILQGLKHLNRAVHEDIVAVELLPKSQWVAPSSVVLHDEGQNEEDVEKEEETERMLKTAVSEKMLKPTGRVVGIIKRNWRPYCGMLSKSDIKESRRHLFTPADKRIPRIRIETRQASTLEGRRIIVAIDGWPRNSRYPNGHFVRNLGDVGEKETETEVLLLEHDVPHQPFSQAVLSFLPKMPWSITEKDMKNREDLRHLCICSVDPPGCTDIDDALHCRELENGNLEVGVHIADVSHFIRPGNALDQESARRGTTVYLCEKRIDMVPELLSSNLCSLKCDVDRLAFSCIWEMNHNAEILKTKFTKSVINSKASLTYAEAQLRIDSANMNDDITTSLRGLNKLAKILKKRRIEKGALTLSSPEVRFHMDSETHDPIDLQTKELRETNSMVEEFMLLANISVAKKIHEEFSEHALLRKHPAPPPSNYEILVKAARSRNLEIKTDTAKSLAESLDQAESPTFPYLNTLLRILATRCMMQAVYFCSGMDNDFHHYGLASPIYTHFTSPIRRYADVIVHRLLAVAIGADCTYPELTDKHKLADICKNLNFRHKMAQYAQRASVAFHTQLFFKSKGIVSEEAYILFVRKNAIVVLIPKYGLEGTVFFEEKDKPNPQLIYDDEIPSLKIEDTVFHVFDKVKVKIMLDSSNLQHQKIRMSLVEPQIPGISIPTDTSNMDLNGPKKKKMKLGK [DIS3]”, the “solubility change mitosis (log2)” value with HeLa Kyoto [1] is -0.0946. Besides, the values for the melting temperature with HeLa Kyoto [2] (cell cycle stage: G1/S) and in the data set on HeLa Kyoto [2] (cell cycle stage: mitosis) were 47.9 °C and 49.2 °C, respectively. Besides, the “solubility in G1/S (log2)” value with HeLa Kyoto [3] was -0.0366. Also, the thermal stability score was found to be 1.5 in the data set with HeLa Kyoto [4] (setting [5]) and 3.37 with HeLa Kyoto [4] (cell cycle stage: mitosis).
